Measurements as given in patent US20250066503A1, “CELL INJURY INDUCING THERAPEUTIC DRUG FOR USE IN CANCER THERAPY” (CHUGAI SEIYAKU KABUSHIKI KAISHA, priority 2016, published 2025).
Numbering of substitutions follows the chain as printed.

B1: hCE115HA/L0000 single-arm antibody (antibody, human IgG1, V domains shown)
VH: QVQLVESGGGVVQPGRSLRLSCAASGFTFSNAWMHWVRQAPGKGLEWVAQIKAKSNNYATYYAESVKGRFTISRDDSKNSLYLQMNSLKTEDTAVYYCRYVHYGAYYGVDAWGQGTTVTVSS
VL: DIVMTQSPLSLPVTPGEPASISCRSSQSLVHSNRNTYLHWYQQKPGQAPRLLIYKVSNRFSGVPDRFSGSGSGTDFTLKISRVEAEDVGVYYCGQGTQVPYTFGQGTKLEIK
notes: single Fab on human IgG1 Fc heterodimerized by knobs-into-hole
B2: GCH054-G1dh/none-Hi-Kn010G3/L0011-k0 (antibody, V domains shown)
VH: QVQLVQSGAEVKKPGASVTVSCKASGYTFTDYEMHWIRQPPGEGLEWIGAIDGETPDTAYSEKFKGRVTLTADKSTSTAYMELSSLTSEDTAVYYCTRFYSYTYWGQGTLVTVSS
VL: DIVMTQSPLSLPVTPGEPASISCRSSQPLVHSNRNTYLHWYQQKPGQAPRLLIYKVSNRFSGVPDRFSGSGSGTDFTLKISRVEAEDVGVYYCGQGTQVPYTFGQGTKLEIKR
notes: one-arm
B3: GCH065-G1dh/none-Hi-Kn010G3/L0011-k0 (antibody, V domains shown)
VH: B2 VH with E54P
VL: B2 VL
notes: one-arm
B4: GCH094-G1dh/none-Hi-Kn010G3/L0011-k0 (antibody, V domains shown)
VH: B2 VH with I37V, P40A, I48M
VL: B2 VL
notes: one-arm
B5: H0610-G1dh/none-Hi-Kn010G3/L0000-k0 (antibody, V domains shown)
VH: B2 VH with T19K, E43Q, E54K, E62Q
VL: B2 VL with P28S
notes: one-arm
B6: antibody-30: optimized anti-human CD3ε chain and anti-human GPC3 bispecific antibody (antibody)
heavy 1: QVQLVESGGGLVQPGRSLRLSCAASGFTFSNAWMHWVRQAPGKGLEWVAQIKDKSQNYATYYAESVKGRFTISRDDSKNSLYLQMNSLKTEDTAVYYCRYVHYAAGYGVDAWGQGTTVTVSSASTKGPSVFPLAPCSRSTSESTAALGCLVKDYFPEPVTVSWNSGALTSGVHTFPAVLQSSGLYSLSSVVTVPSSSLGTKTYTCNVDHKPSNTKVDKRVESKYGPPCPPCPAPEFRGGPKVFLFPPKPKDTLMISRTPEVTCVVVDVSQEDPEVQFNWYVDGVEVHNAKTKPREEQFASTYRVVSVLTVLHQDWLNGKEYKCKVSNKGLPSSIEKTISKAKGQPREPQVYTLPPSQKEMTKNQVSLTCLVKGFYPSDIAVEWESNGQPENNYKTTPPVLDSDGSFFLYSKLTVDKSRWQEGNVFSCSVMHEALHNRYTQKSLSLSP
heavy 2: QVQLVQSGAEVKKPGASVTVSCKASGYTFTDYEMHWVRQAPGEGLEWMGAIDGETPDTAYSEKFKGRVTLTADKSTSTAYMELSSLTSEDTAVYYCTRFYSYTYWGQGTLVTVSSASTKGPSVFPLAPCSRSTSESTAALGCLVKDYFPEPVTVSWNSGALTSGVHTFPAVLQSSGLYSLSSVVTVPSSSLGTQTYTCNVDHKPSNTKVDKRVESKYGPPCPPCPAPEFRGGPKVFLFPPKPKDTLMISRTPEVTCVVVDVSQEDPEVQFNWYVDGVEVHNAKTKPREEQFASTYRVVSVLTVLHQDWLNGKEYKCKVSNKGLPSSIEKTISKAKGQPREPQVYTLPPSQEEMTKNQVSLTCLVKGFYPSDIAVEWESNGQPENNYKTTPPVLDSDGSFFLYSKLTVDKSRWQEGNVFSCSVMHEALHNHYTQESLSLSP
light: DIVMTQSPLSLPVTPGEPASISCRSSQPLVHSNRNTYLHWYQQKPGQAPRLLIYKVSNRFSGVPDRFSGSGSGTDFTLKISRVEAEDVGVYYCGQGTQVPYTFGQGTKLEIKRTVAAPSVFIFPPSDEQLKSGTASVVCLLNNFYPREAKVQWKVDNALQSGNSQESVTEQDSKDSTYSLSSTLTLSKADYEKHKVYACEVTHQGLSSPVTKSFNRGEC
B7: antibody-31: optimized anti-human CD3ε chain and anti-human GPC3 bispecific antibody (antibody)
heavy 1: B6 heavy 1 with L11V, R16G, D75A, L81I, A111I
heavy 2: B6 heavy 2
light: B6 light
B8: antibody-32: optimized anti-human CD3ε chain and anti-human GPC3 bispecific antibody (antibody)
heavy 1: B6 heavy 1 with L11V, R16G, D75A, L81I, A111I
heavy 2: B6 heavy 2 with V37I, A40P, M48I, E54P
light: B6 light
B9: antibody-33: optimized anti-human CD3ε chain and anti-human GPC3 bispecific antibody (antibody)
heavy 1: B6 heavy 1
heavy 2: B6 heavy 2 with V37I, A40P, M48I, E54P
light: B6 light
B10: CE115HA122-E22Hh//-Hi-Kn010G3/L0000-k0: modified anti-CD3 antibody (antibody)
heavy: QVQLVESGGGVVQPGRSLRLSCAASGFTFSNAWMHWVRQAPGKGLEWVANIKAKSNNYATYYAESVKGRFTISRDDSKNSLYLQMNSLKTEDTAVYYCRYVHYGAYYGVDAWGQGTTVTVSSASTKGPSVFPLAPSSKSTSGGTAALGCLVKDYFPEPVTVSWNSGALTSGVHTFPAVLQSSGLYSLSSVVTVPSSSLGTQTYICNVNHKPSNTKVDKKVEPKSCDKTHTCPPCPAPEAAGGPSVFLFPPKPKDTLMISRTPEVTCVVVDVSHEDPEVKFNWYVDGVEVHNAKTKPREEQYASTYRVVSVLTVLHQDWLNGKEYKCKVSNKALPAPIEKTISKAKGQPREPQVYTLPPSRCELTKNQVSLSCAVKGFYPSDIAVEWESNGQPENNYKTTPPVLDSDGSFFLVSKLTVDKSRWQQGNVFSCSVMHEALHNHYTQKSLSLSPDYKDDDDK
light: B6 light with P28S

Tests used:
[1] = biological target: T1, soluble human CD3 epsilon chain (human, UniProt P07766 23-126); assay: SPR, human CD3 on the chip
T1 construct: also called CD3ε
T1 sequence (P07766 23-126 limits assumed): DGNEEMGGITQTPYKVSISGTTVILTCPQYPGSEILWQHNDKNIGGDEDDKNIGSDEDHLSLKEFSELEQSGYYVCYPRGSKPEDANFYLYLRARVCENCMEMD
Experimental: (§1) The activity to bind human CD3 when using hCE115HA (SEQ ID NO: 52) as the H chain variable region and L0000 (SEQ ID NO: 53) as the L-chain variable region was evaluated. This was performed using the molecular form of a single-arm antibody having a single Fab at the Fc region of a human IgG1 heterodimerized by the knobs-into-hole technique.
(§2) The affinity and binding rate constants of an anti-CD3 antibody for an antigen were measured by the single-cycle kinetics method of a surface plasmon resonance assay using Biacore™-T200 (GE Healthcare Japan). HBS-EP+(GE Healthcare Japan) was used for the running buffer, and an amine coupling kit (GE Healthcare Japan) was used to covalently bind human CD3 to the CM4 chip (carboxymethyl dextran-coated chip). The anti-CD3 antibody used as the analyte was prepared at 5 and […] using HBS-EP+. Measurements were carried out by first injecting each of the 5- and 20-g/mL anti-CD3 antibody solutions for three minutes continuously at a flow rate of 20 L/min to allow reaction to take place. Then, the solution was switched to HBS-EP+ and the dissociation phase was measured for 3 minutes. After completion of the dissociation phase measurement, the sensor chip was regenerated by washing with 10 mM Gly-HCl at pH 1.5. Measurement at the concentration of 0 was carried out by performing each of the three-minute HBS-EP+ injections twice successively to allow reaction to take place, and then switching to HBS-EP+ to measure the dissociation phase for 3 minutes. After completion of the dissociation phase measurement, the sensor chip was regenerated by washing with 10 mM Gly-HCl at pH 1.5. A data analysis software exclusively for Biacore, Biacore T200 Evaluation Software Version 1.0, was used to perform kinetic analyses to calculate the binding rate constant (ka), dissociation rate constant (kd), and the rate constant ratio from the obtained sensorgrams.

[2] = biological target: T2, human GPC3 (human, UniProt P51654 25-563); assay: SPR
T2 construct: range 25-563; soluble analyte; also called soluble human GPC3; glypican 3
T2 sequence (P51654 25-563 limits assumed): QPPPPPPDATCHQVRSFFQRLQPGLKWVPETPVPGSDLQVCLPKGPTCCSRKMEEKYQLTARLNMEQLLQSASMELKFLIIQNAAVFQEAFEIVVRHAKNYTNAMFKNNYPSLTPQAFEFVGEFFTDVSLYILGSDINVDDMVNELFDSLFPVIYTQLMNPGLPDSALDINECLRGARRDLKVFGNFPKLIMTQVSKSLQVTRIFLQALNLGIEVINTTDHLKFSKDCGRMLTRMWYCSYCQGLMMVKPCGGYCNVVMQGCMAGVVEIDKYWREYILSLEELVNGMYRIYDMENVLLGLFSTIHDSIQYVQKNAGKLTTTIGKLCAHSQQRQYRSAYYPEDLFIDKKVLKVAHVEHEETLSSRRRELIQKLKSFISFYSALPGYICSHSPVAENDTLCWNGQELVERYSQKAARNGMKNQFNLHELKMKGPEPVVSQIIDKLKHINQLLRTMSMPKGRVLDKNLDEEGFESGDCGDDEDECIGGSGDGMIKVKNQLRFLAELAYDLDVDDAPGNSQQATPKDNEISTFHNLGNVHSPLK

[3] = biological target: T2, human GPC3; assay: SPR, single-arm antibody
[4] = system: SK-HEP-1/hGPC3 (SK-pca31a) xenograft tumor; assay: In vivo drug efficacy, NOD scid/T cell-injected model, SK-pca31a; design: species or system NOD scid mice; details: 5 mg/kg once through the tail vein, compared to the vehicle-administered group
Experimental: Methods called an NOD scid/T cell-injected model, a humanized NOG mouse model, and a human CD3εδγ gene-modified mouse model were used in the in vivo drug efficacy evaluation. Assay using an NOD scid/T cell-injected model was performed as follows. […] T cells expanded by culturing human PBMCs in vitro were injected into the NOD scid mice with confirmed tumor establishment. The mice were treated by administering bispecific antibody-38 and bispecific antibody-30, -31, -32, or -33. Assay using a humanized NOG mouse model was performed as follows. CD34-positive hematopoietic stem cells derived from umbilical cord blood were transplanted into NOG mice by tail vein injection. Human T cells are constantly supplied in the mice, which are called humanized NOG mice. The PC-10 cell line was transplanted into humanized NOG mice. The humanized NOG mice with confirmed establishment of PC-10 tumor were treated by administering antibody-38. Assay using a human CD3εδγ gene-modified mouse model was performed as follows. Cells of mouse-derived cell line forced to express human GPC3 were transplanted into a human CD3εδγ gene-modified mouse model, which had been prepared according to Reference Example 10. The human CD3εδγ gene-modified mice with confirmed tumor establishment were treated by administering antibody-38.
The drug efficacy evaluation studies for bispecific antibody-38, and bispecific antibody-30, -31, -32, and -33 in NOD scid/T cell-injected model were performed as follows. T cell expansion culture was performed using PBMCs separated from blood collected from a healthy person and T cell activation/expansion kit/human. Each of human cancer cell lines (MKN74, FU-97, SNU-1, SCC152, KYSE70, PC-10, HuH-7, TOV-21G, RMG-1, and SK-pca31a (SK-HEP-1/hGPC3)) was mixed with Matrigel™ Basement Membrane Matrix, and transplanted subcutaneously into NOD scid mice (CLEA Japan). An in vivo-passaged line (STM-03) was transplanted as about 2-mm tumor tissue cubes subcutaneously into NOD scid mice (CLEA Japan). The day of transplantation was defined as Day 0. On the day before transplantation, anti-asialo GM1 antibody (Wako Pure Chemical Industries) was administered intraperitoneally at 0.2 mg/mouse. When tumor was clearly established after transplantation, the mice were separated into groups based on tumor size and body weight. Then, anti-asialo GM1 antibody was administered intraperitoneally at 0.2 mg/mouse again. On the following day, T cells obtained by the aforementioned expansion culture were transplanted intraperitoneally at 1.5×10^7 to 3×10^7 cells/mouse. About two to five hours after T cell transplantation, antibody-38 was administered at 1 mg/kg (MKN74, FU-97, SNU-1, SCC152, KYSE70, PC-10, HuH-7, TOV-21G, RMG-1, and STM-03) through the tail vein. The administration was performed only once. […]

[5] = biological target: human CD3 (soluble human CD3ε chain) (Homo sapiens, UniProt P07766); assay: Affinity for human CD3 by surface plasmon resonance (Biacore T200); assay type: binding; details: soluble human CD3ε chain; Table 12
human CD3 (soluble human CD3ε chain), sequence (P07766 23-126 limits assumed): as the sequence (P07766 23-126 limits assumed) above
Experimental: as §1, §2
CDR and FR were determined according to the Kabat definition (Kabat numbering).
First, point mutations were introduced into FR1, FR2, FR3, CDR1, CDR2, and CDR3 of the humanized anti-human CD3ε chain antibody sequence produced in Reference Example 2, hCE115HA-ERY27_HE (SEQ ID NO: 55), to prepare modified antibodies. Next, the affinity of these modified antibodies for the soluble human CD3ε chain was determined.

Molecule | Kd [2] [nM] | Kd [3] [nM] | anti-tumor effect [4] | further results
B1 | – | – | – | Kd [1]: 120 nM; koff [1]: 0.023 s⁻¹; kon [1]: 190000 M⁻¹ s⁻¹
B2 | 5.25 | 5.25 | – | –
B3 | 0.884 | 0.884 | – | –
B4 | 3.88 | 4.54 | – | –
B5 | 3.97 | 4.16 | – | –
B6 | – | – | evident anti-tumor effect | –
B7 | – | – | evident anti-tumor effect | –
B8 | – | – | evident anti-tumor effect | –
B9 | – | – | evident anti-tumor effect | –
B10 | – | – | – | Kd [5]: 42.8 nM
